Source: the RNAGym collection of RNA variant scans (doi:10.1073/pnas.2313332121)
Variants at the floor of the assay were thinned out.

B1: TPR 5TU (parent)
chain: GGAUCUUCUCGAUCUAACAAAAAAGACAAAUCUGCCACAAAGCUUGAGAGCAUCUUCGGAUGCAGAGGCGGCAGCCUUCGGUGGCGCGAUAGCGCCAACGUUCUCAACUAUGACACGCAAAACGCGUGCUCCGUUGAAUGGAGUUUAUCAUG

Variants of: B1
Assay: polymerase ribozyme fitness, log enrichment relative to wild type (log ratio); higher = more active; in vitro selection for triplet polymerase activity
Outline: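 For each subunit of a heterodimeric triplet polymerase ribozyme, a mutant library was built by PCR and transcribed, then taken through a single in vitro selection round in triplicate. Selection involved annealing to a biotinylated primer, the partner subunit and triplets, incubation frozen at −7 °C, gel excision of extended constructs, capture on streptavidin beads and RT-PCR. Genotypes were retained after Illumina sequencing of inputs and outputs only with ≥10 input reads and ≥1 read in each output. Fitness is defined as the logarithm of a genotype's enrichment relative to wild-type enrichment, using inverse-variance-weighted averages across replicates, with the logarithm taken to base 2.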

| Variant | polymerase ribozyme fitness (log ratio) |
| --- | --- |
| C10G A52G C54U G58C C79A C95U | -3.91 |
| G11A U56A C99U G143C | -3.7 |
| G11A U55G G74C U77C A98U A115C | ≤ -4.2 |
| U9C A24C A40C C93A C105G G141C | ≤ -4.2 |
| C10A C93U G140C | ≤ -4.2 |
| C10U G42C U53A A66G A91G A110C | ≤ -4.2 |
| G11A G94U A150U | -0.735 |
| G11A A30C C99A C118U U145G | ≤ -4.2 |
| C10G A52U C72U G86U C93U C116G G124A U144C | ≤ -4.2 |
| C10A A12G A60G C93A | ≤ -4.2 |
| U9A C76A C85U G100C U104G A115U | ≤ -4.2 |
| C10U C38U A73G A89G A97G C116G A122U C129A | ≤ -4.2 |
| U9C C10G C35U G94A C103A C108U A115U G140U | ≤ -4.2 |
| C10G G11C A12G G70U C85G U101C G128A | ≤ -4.2 |
| U9G A21U A24G C72U A147C | ≤ -4.2 |
| U9A A23U C32G C54G G92U U101C G140U | ≤ -4.2 |
| C10U A19U A21U C32G G42A G80C A137U | ≤ -4.2 |
| C10G A40C U78G G84U G88U G141U | ≤ -4.2 |
| G11A C96U | -1.9 |
| G11U A39U C57U G70A U101G | ≤ -4.2 |
| G11A G84A C85U G88A C99A C131G U139C | ≤ -4.2 |

| Variant | polymerase ribozyme fitness (log ratio) |
| --- | --- |
| G11A A73G G92A A121G | ≤ -4.2 |
| C10U U45G A60C C85U | ≤ -4.2 |
| G11C A30U C95A C108G U148A | ≤ -4.2 |
| G11C C63U G83A A115U U135A U146C G152U | ≤ -4.2 |
| U9G G68C G83A G84A C149U | ≤ -4.2 |
| C10U A52U A60C G88U | ≤ -4.2 |
| G11C U13A A64U G74C C85U C96G U102C | ≤ -4.2 |
| G11A C54G G94A | -2.96 |
| U9A C149G | ≤ -4.2 |
| C8U U13A A40C U44G C93G | ≤ -4.2 |
| C10G C57G G92C A113C G133A | ≤ -4.2 |
| C10G C93U | -3.86 |
| C10U A39G G42U G59A A60C C63U A91U C105U A115C A142C | ≤ -4.2 |
| U9G G58A C75U G83U C95A C131A | ≤ -4.2 |
| U9A A26U G92U A142U | ≤ -4.2 |
| C10G G42U C63U C95A C123G | ≤ -4.2 |
| C10U G80C G84U C87A C105A U151G | ≤ -4.2 |
| U9G G74A A91G C93U G141U | ≤ -4.2 |
| C10G A20C C36A U53A U134A A142U | ≤ -4.2 |
| U9C C18G A21G A29U C87G | ≤ -4.2 |
| C10U A40G | -4.12 |

| Variant | polymerase ribozyme fitness (log ratio) |
| --- | --- |
| G11A C27U A49G C96A C118U U145A | -4.19 |
| C10U A17C C38U G58C C96G | -3.69 |
| C8U U33A C38U G62A | ≤ -4.2 |
| U9A A12U C85U G88C U148G | ≤ -4.2 |
| C10A C32G C38U U56G A60G C95A C131U G140U | -4.19 |
| G11U A19C G68A G74A C87A C149G | ≤ -4.2 |
| C10A G59A A91U U111A U127C A138U A150G | ≤ -4.2 |
| G11A C85U G92C G143A | -4.01 |
| G11C C57G U82A G83U G141U | -2.65 |
| U9G C10U U77G G83A A110G | ≤ -4.2 |
| C10G C69G G83C | ≤ -4.2 |
| G11A C85A | -2.76 |
| G11A C85U | -1.56 |
| U9C C27U G84U G126U | ≤ -4.2 |
| G11C A20G G34U A137U | ≤ -4.2 |
| C10A G11U A30U C36A G48A C87G A122G | ≤ -4.2 |
| U9C A40C U45A G65C C85A U111G A113U C118G | ≤ -4.2 |
| C10U A60G A64U C85U C129A | ≤ -4.2 |
| G11C U55A C76G G140U | ≤ -4.2 |
| U9G C18U A39G A49C C51A G94U A106G | ≤ -4.2 |
| G11A G86A | -2.24 |

| Variant | polymerase ribozyme fitness (log ratio) |
| --- | --- |
| C10U A23U U33G C96G A115C | ≤ -4.2 |
| C10G C76A G83A A91U A106C C108A U130A | ≤ -4.2 |
| C10G C69G | -4.16 |
| C10G C14U A28U U53A A122C | ≤ -4.2 |
| G11U A23U C32U C57U G58A U77C C93G C96U A97U G100U A110U G143C | ≤ -4.2 |
| G11C C32G G34C G88C A106G C108A A110U C149G | ≤ -4.2 |
| U9C C93A | ≤ -4.2 |
| C10U C93U | -4.06 |
| C10G C18G A21C G25A G65A C79A U104G | ≤ -4.2 |
| G11A C32A C93U | ≤ -4.2 |
| C10U U77G C87A A91C C108U G133A | ≤ -4.2 |
| C10G C14U G50C C54A C76G C105G | ≤ -4.2 |
| C10A A22U A37C U134C A142G | -4 |
| C10U A29G A47C U55G A60U C95U U144A U146G | ≤ -4.2 |
| U9A U31G C57U G74C G92C | ≤ -4.2 |
| G11U C54U C72A U90G G92U U111G U148G | ≤ -4.2 |
| U9G C43A C54A C75G C93G U146A | ≤ -4.2 |
| G11C G50A U56A G83U C93A U127C U135C | ≤ -4.2 |
| G11C C38U C76U U78G A97G G124U | ≤ -4.2 |
| U9G A41U U53A C96A U102A A150U | ≤ -4.2 |
| C10A A91U U101G | -4.05 |
